This data set in a line: label from the status in PepcDB records.
On to “MTRAQPEPVQVVKQRRDAALRALVSGVPYITYLGIQFDRRGDELTAVLPFDEKLIGNPMLPAIHGGVTAAFLEVASIIELSWSVLWHEMEQGRLDPDQIEARLPRLPKTIDFTVDYLRSGLPRDAYARARVNRSGRRYASVHVEAWQDNRLRPFAQATGHFLMPARNDLEHHHHHH”, for which the protein production entry was “not failed”.
For the sequence “MPLGSSAPPRMGGHTALAAALWPRRTDGFSAWLRMAVLIAFGSVLLALSAKVNLPLPLVPMTLQTLMVVLIGAAYGARLGAATVLAYLAEGAAGLPVFAGPVGGLAPLLGPTAGYLAGFVVAAVLVGWCADRGFDRSVAKLFAAMLAGHLAILTLGFAWLAFGLHLGLAKAWWVGVVPFLAGSLVKSALGAALLPAVRRIVDRQR”, the protein production result is listed as “failed”.
The result for “MKRSDNVSWSQLKGGIFILVALAFFAGGVLLMGDKTKFFVPKGRLSVIMADVAGLKAGAPVWLAGVDVGVVTQIHFERPEATNEVEIVLEVDREALKKIGADSVVTVKTRGLMGEKYVDITPTREIVAKPVTRLQGTPMPKLDDVVQKAGRAFDRVDAIVAKTERGEGTLGRFASDPKLYDSLVRLTTELNAVAVSVNRGEGTLGMLNKSREPYEKLMSILNRADNTLTDIQSSEGTMSKLIHDRELYDKLVAVASKAGTAADEVRELNRRLLSKDGTLGKLVADREFYDRGLTLINRADTSLKSLEEVTARLQRGEGTAGKLLSDRELYDRLNRTVDDLDLLVKDIKENPKRYVKFSVFLEHHHHHH” reads “failed”; that for “MIEFLLNYYFMPFNLSVIALLILSMAETIGIYIGLRPSTFLKKFLPRWLSNSPLVNVKFSKVLILVFFLINFSFAGYFLQLCVFAQQQFFISPFYLIIPALIIGIFFTVFMIHCLDQVIKPQVEHQYSSLLGRLATISSGSARPGFSAQARVRDEFGQLHYVQVEPEFGELELQSQVILIRFRQTHYIAKRISASNHLFTPE”, “failed”.
The result for “MNLEPPKAEIRSATRVMGGPVTPRKGPPKFKQRQTRQFKSKPPKKGVQGFGDDIPGMEGLGTDITVICPWEAFNHLELHELAQYGII” reads “not failed”; that for “MEEKVEELIDIYKQQIYSLCYKLAKTKEDAEDIFQETWIKVFSSRHQLSYVENYKKWITTICVRTFYDFYSKKKRWKDRVLDLFHKEDGGEIEFADDVNISEEFIQKVEAEMIREVIQLLNEKYKTVLVLYYYEQYSYKEMSEILNIPIGTVKYRLNYAKKQMREHLEGFVHEGR”, “failed”.
On to “MKELIKVIAFDADDTLWSNEPFFQEVEKQYTDLLKPYGTSKEISAALFQTEMNNLQILGYGAKAFTISMVETALQISNGKIAADIIRQIVDLGKSLLKMPIELLPGVKETLKTLKETGKYKLVVATKGDLLDQENKLERSGLSPYFDHIEVMSDKTEKEYLRLLSILQIAPSELLMVGNSFKSDIQPVLSLGGYGVHIPFEVMWKHEVTETFAHERLKQVKRLDDLLSLLG”, for which the protein production entry is recorded as “not failed”.
The result for “MVSKRLTGAVALLFLAAGAAGAAGLTVKEQLGKDIFFDTNLSINGNQSCADCHAPEAGWTGPTSEVNAHGAVYEGSIAGRFGNRKPPSSAYATTAPILKYIRQGGGMFVGGNFWDGRATGEKLGNPAADQAQGPFLNPLEQGLPDSACVVHRVCTATYGTAMETLWPGSCAIAWPADVAAACATEGTVVNLDAPNRAASDLAYDYIALAIAAYEGSTESNAFTSKYDAFLAGKAFLTPEERRGLTLFNGKAKCARCHVNTGRAPLFTDYTYDNLGVPRNSENPFYESAFNPLGINWIDQGLGGFLASRIDYSRFATANLGKHKVPTLRNVDKKTSPDFVKAFGHNGYFKSLKEIVHFYNTRDVLPTCAPGSPGEKVTCWPEPELALTMNTTELGNLKLSDAEEDALVAFMKTLTDGYQP” reads “failed”; that for “MHHQSVLHSGYFHPLLRSWQTAASTVSASNLIYPIFVTDVPDDVQPIASLPGVARYGVNQLEEMLRPLVEAGLRCVLIFGVPSRVPKDEQGSAADSEDSPTIEAVRLLRKTFPSLLVACDVCLCPYTSHGHCGLLSENGAFLSEESRQRLAEVALAYAKAGCQVVAPSDMMDGRVEAIKAALLKHGLGNRVSVMSYSAKFASCFYGPFRDAAQSSPAFGDRRCYQLPPGARGLALRAVARDIQEGADMLMVKPGLPYLDMVREVKDKHPELPLAVYQVSGEFAMLWHGAQAGAFDLRTAVLETMTAFRRAGADIIITYFAPQLLKWLKEE”, “failed”.
As for “MLRYSFRSIKRNFASSLLLVGALVAIFVASPLSFSMLSSIQAEVDANIKQYARGSYDLLIRPIGTQTAVETTLGVVEENYLALGEGGISLNEWETIKALDGVEVAAPVASLGYFAGETHTVAVEFPNNSSFIEGRFQTSDGLHTYPLQAGGSYYVLEQEGYYYGYEYVQQGNEEIPGSGGPPFFSMPVTYHLIVGIDQQEEEKLTGFNFSALNNSIPEGFRFYFDLDVERHIKIIYLKDATTPLTVQVDVAPIDWETADTERLKDELGLTYDEPLFISEQFPSLFTQFQDRHIGPIETYTFDLSEHMPPFSYDPVSLDYDGSMHEPIENAYGVSESSRFYQASPIDYDIQAGGRLKVKQVGDYEGIPIYRTIQEQGGAAYELHGIGKIPFLLYPVGHFTTAEYEHSLSASPLGIYQQAPSVLSDGTMLHETIAPGSFVNAPAHGLMALEDAAFIKGDAPIDAIRIRVAGITAYDQEAVDKMSQVATEIAKLGDYQIDVIAGASPAPMTMDVEGIGEVVQPWTSLGAAATIRDGWNGTNVLIAGLFLFVSISYLANRFHFRRHTKKEEQELLLDLGWKKRHIRWLYLMENSSLIFLSAAIASLILLAYIWLYQADWFILIFFVAVVVLTFLFSLIYVSMMRGVQKISFRRLKGQTVWIRNLFYYRRLLTLSIIQLASVALLLAFVVSSIAATIAQTGGTYLGVYINDAVFIPLVSIMVAALFLAVLTVGESTSAFLLLRKEELQTLRDIGWRIKDVHRLCLKESAVWTTGAIMGGVVISLLTVSVFYSLSLSFLLFAGVAVVLLSSIAIVTAGGMIRSSLRKMA”, the protein production entry is recorded as “failed”.
The result for “SAMAQKEEGHEAAAAEAKKETDLAHVDQVETFVGKEKYYVVKGTDKKGTALYVWVPADKKAKILSKEAKEGISEDKAAKIIKDEGLVSKQKEVHLAREGNVLLWEVTYLDKEGQYSLSYVDFTTGKILKNITP” reads “not failed”.
As to “MVFIWSLIFIVILSVVFTTNIKKNYKGWYALASFISILVSIYEVMRIVSHPKLNGVILSIEQAFMKGNVAIAFFILVMFAGALSTKQVIGKKLMSIRAELAILGSILILPHGIIYFVRFLIIKLPKILNGKANATLYLIYISIGIIAFIIMIPLFITSFKSVRKRLGGFRWKKLHRWSYVFYCLIYLHIILALLNGKINFIKIILYTFIFMVYTVMKFIKHRNIKLRRKS”, the protein production entry is listed as “failed”.
With “MDRIDAMKVFVAAIDEGSLAGAARRLKRSPTAVSRALSFLEAHVGVELLHRTTRTLKLSEAGQRYAAACRRVLTDLEEADMLAGGERSAPRGMLTISSPPILGEEILRPILDDFLDLYPTVSVRLLLLDRFVNLVDEGVDIALRIGQLADSSLISTRLGGDVRRVVVASPRYLANHPRIEEPADLDKHQILAFTNFGLESWSFTPAKGSSVPRTIQFTPRCIVNSVRAAAASAAAGRGLTRLYSYHVAEYVRDGRLEIVLADAEHPPLPAHLIAPQGRMSVPKVRAFVDFAAPRLRSEFARMAAEAGTLT” the entry was “failed”; with “MRLGRIASPDGVAFVSIEGELDNPAEMIAREIAEHPFGTPNFTGRSWPLADVRLLAPILASKVVCVGKNYADHIAEMGEATGPVPADPVIFLKPNTAIIGPNVPIRLPANASPVHFEGELAVVIGRPCKDVSAAQAAENILGYTIGNDVSARDQQRSDGQWTRAKGHDTFCPVGPWIVTDLNPLDPGDLELRTEVNGEVKQRSRTSLLIHDIGSIVEWISAVMTLLPGDLILTGTPAGVGPIEDGDTVSITIEGIGTLTNPVVRKGKS”, “failed”.
In the case of “MKEVIAQNAKLSADDLKEILPKANKLEDFAFEKNEDSTISEVFQAKNGSENEGYIIKVSPKGFNGPIDMVVAIDKNREISGVKVLSQAETPGLGAKVEESSFSEKFKGLTIEDNIKIVKTSPSSQGEIQGITGATISSNAVSSGINDAISFYKENVLGEDLSKEKILNLSKINLEGDLKELTIELEEGIDKVSIVSNGEKEIGYAIEASEVGMYEEKPIKFALGISTGGIITGVQIIDHKETAGLGDLIEDENFLNSFIGVSSLDKLSVKENTNEIDLSVYGEVVNVDSISGATKSSMAIIKGITNVINFYNNNLSLEHHHHHH”, the protein production entry is reported as “not failed”.

Source of the values: a protein production outcome set (Wang et al. 2014).
